Data as given in patent publication US10369187B2, “Peptide regulators of JNK family kinases” (Vanderbilt University, priority 2017, dated 2019).
“Also recorded” adds a separate entry of the source.

What was measured:
MKK4 = target: T1, MKK4 (Homo sapiens, UniProt P45985); assay: MBP pull-down of purified MKK4; format: binding; details: for binding of MKK4 in MBP pull-down: purified GST-MKK4, peptide as MBP-fusion immobilized on amylose
T1 sequence (P45985 1-399): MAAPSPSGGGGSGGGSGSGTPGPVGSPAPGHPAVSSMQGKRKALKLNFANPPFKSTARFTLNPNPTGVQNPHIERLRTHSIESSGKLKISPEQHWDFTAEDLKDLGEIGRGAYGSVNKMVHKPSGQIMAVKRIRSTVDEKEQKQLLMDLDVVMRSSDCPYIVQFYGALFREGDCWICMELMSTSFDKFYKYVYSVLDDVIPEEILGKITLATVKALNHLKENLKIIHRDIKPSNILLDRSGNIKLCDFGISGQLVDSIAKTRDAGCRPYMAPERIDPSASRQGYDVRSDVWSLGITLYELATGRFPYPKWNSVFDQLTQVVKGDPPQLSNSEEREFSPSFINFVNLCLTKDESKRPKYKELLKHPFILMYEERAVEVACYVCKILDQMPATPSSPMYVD
Experimental: T1A was expressed in E. coli as an MBP-fusion and purified it on an amylose column^23. The ability of purified GST-MKK4 or GST-MKK7 (FIG. 1A) to bind MBP-T1A immobilized on an amylose column was tested in an in vitro pull-down assay, where MBP and MBP-arrestin-3 served as negative and positive controls, respectively (FIG. 1B). MBP-T1A, but not control MBP, effectively retained both kinases (FIG. 1B). […] Next, it was tested whether T1A binds the uppermost kinase in the cascade, ASK1. Because ASK1 is not available in purified form, HA-tagged ASK1 and YFP-tagged T1A (using YFP as a control) were co-expressed in COS7 cells, lysed the cells, and immunoprecipitated YFP constructs with anti-GFP antibody (FIG. 1C).
To make MBP-fusions containing arrestin-2/3 elements, the cDNAs encoding arrestin fragments were subcloned into pMal-p2T (generous gift from Dr. Keiji Tanaka, Tokyo Institute of Medical Science) between Eco RI and Xho I sites in frame with MBP, as described^23. MBP-Arr3 (full-length arrestin-3) was created by subcloning the corresponding cDNA into pMal-p2T between Eco RI and Not I sites^23. All MBP-arrestin-3 fusion proteins contained the same […] (SEQ ID NO:29) linker between MBP and arrestin-3 or its fragments. The MBP protein used as negative control was purified using empty pMal-p2T vector containing the same linker with 10 additional residues: […] (SEQ ID NO:30). MBP fusions were purified, as described^23. MBP pull-down was performed, as described^23. Briefly, Indicated MBP fusions (10-30 μg in 50 μL 20 mM Tris/150 mM NaCl) were immobilized on amylose resin (25 μL, 50% slurry, New England Biolabs) for 1 h at 4° C. with slight rotation. Purified, as described^40, MKK4/7 (10 μg in 50 μL 20 mM Tris/150 mM NaCl) were added to the immobilized MBP fusions and rotated gently for 2 h at 4° C. Samples were transferred to centrifuge filters (Durapore®-PVDF-0.65 μm), washed three times with 50 mM HEPES-Na, pH 7.3, 150 mM NaCl. The proteins were eluted by 100 μl of elution buffer (wash buffer containing 50 mM maltose) by gentle rotation for 5 min at 4° C. Eluates were analyzed by SDS-PAGE and Western blotting.

JNK3 = JNK3 (Homo sapiens, UniProt P53779); assay: MBP pull-down of purified JNK3; format: binding; details: MBP-fusions, compared with T1A
Sequence of JNK3 (P53779 whole entry, species assumed, the tested form may be a part): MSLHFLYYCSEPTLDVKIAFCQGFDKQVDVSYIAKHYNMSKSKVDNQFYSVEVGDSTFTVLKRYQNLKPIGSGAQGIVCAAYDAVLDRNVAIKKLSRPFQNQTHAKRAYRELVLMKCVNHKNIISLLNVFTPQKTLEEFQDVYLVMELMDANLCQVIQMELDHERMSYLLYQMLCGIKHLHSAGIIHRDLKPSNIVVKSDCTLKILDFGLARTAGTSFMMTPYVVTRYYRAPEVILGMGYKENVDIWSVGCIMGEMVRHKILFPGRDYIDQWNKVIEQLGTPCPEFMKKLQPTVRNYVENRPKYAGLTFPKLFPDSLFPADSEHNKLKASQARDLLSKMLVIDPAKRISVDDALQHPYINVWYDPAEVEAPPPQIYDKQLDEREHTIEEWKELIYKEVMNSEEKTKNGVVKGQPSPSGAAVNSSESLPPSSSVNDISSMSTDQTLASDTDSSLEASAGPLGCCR
Experimental: FIG. 5. […] Residues that differ between T1A and B1A are shown in magenta. b, c, d) Pull-down of purified JNK3 (b), MKK4 (c), and MKK7 (d) by MBP (negative control), MBP-arrestin-3 (positive control), MBP-T1A, and MBP-B1A, was performed, as described in Methods. Lower panels, Coomassie gels of loaded MBP-fusions; middle panels, Western blots of retained JNK3 (b), MKK4 (c), and MKK7 (d); upper panels, quantification of Western blots from 3-4 independent experiments. […] T1A sequence shown is SEQ ID NO:1. B1A sequence shown is SEQ ID NO:6.
To test the specificity of T1A action, its ability to bind purified MKK4, MKK7, and JNK3 was compared with that of B1A, a homologous N-terminal peptide from closely related arrestin-2, which differs from T1A only in four positions (FIG. 5). […] To test whether this difference in binding translates into differential activity in cells, the ability of YFP-T1A and YFP-B1A to facilitate JNK3 activation were compared in cells over-expressing ASK1, using YFP-arrestin-3 and YFP as positive and negative controls, respectively.
To make MBP-fusions containing arrestin-2/3 elements, the cDNAs encoding arrestin fragments were subcloned into pMal-p2T (generous gift from Dr. Keiji Tanaka, Tokyo Institute of Medical Science) between Eco RI and Xho I sites in frame with MBP, as described^23. […] Eluates were analyzed by SDS-PAGE and Western blotting.

MKK4-JNK3 module = MKK4-JNK3 module (Homo sapiens, UniProt P45985+P53779); assay: In vitro phosphorylation of JNK3α2 by MKK4 (reconstituted module); format: biochemical
Sequence of MKK4-JNK3 module (P53779 whole entry, one chain of several): as the sequence (P53779 whole entry, species assumed, the tested form may be a part) above
Experimental: (§1) Next, it was tested whether T1A acts as a scaffold facilitating signaling. To this end, experiments used purified proteins, because they provide the most definitive data supporting a direct interaction. As purified ASK1 is not available, MKK4-JNK3 and MKK7-JNK3 modules were reconstituted in the absence and presence of varying concentrations of synthetic purified T1A peptide and measured JNK3 phosphorylation (FIG. 2A). […] This dependence, where signaling is increased at lower scaffold concentrations and decreased at higher, was also found for scaffolding of these modules by full-length arrestin-3^20. It is believed to be a characteristic of simple scaffolds, which act by bringing the enzyme and substrate together, as lower scaffold concentrations make the formation of complete scaffold-enzyme-substrate ternary complexes likely, whereas higher concentrations increase the probability of formation of incomplete enzyme-scaffold and substrate-scaffold binary complexes, suppressing the signaling^25,26. The optimal concentration of a scaffolding protein for signaling depends on its affinity for the proteins it scaffolds^20,25,26.
JNK3α2^20,23, and MKK4 and MKK7^17,20 were expressed in E. coli and purified as previously described^40. The effect of arrestin-3 and MBP-T1A on the phosphorylation of JNK3α2 by MKK7 or MKK4 was analyzed by an in vitro kinase assay, as described^19,20. Briefly, the assays were conducted in 10 μL containing the following final concentrations: 50 nM active MKK7 or MKK4, 1 μM JNK3α2, and indicated concentrations of arrestin-3 or T1A. The mixtures were incubated individually at 30° C. for 10 sec. The reactions were stopped by the addition of 15 μL of Laemmli SDS sample buffer (Sigma) and 2 μl of total reaction sample was subjected to SDS-PAGE (8%) and transferred polyvinylidene difluoride (PVDF) membranes (Millipore, Bedford, Mass.). Phosphorylated JNK3α2 was visualized by rabbit anti-phospho JNK antibody (Cell Signaling) and the level of JNK phosphorylation was quantified.

MKK7-JNK3 module = MKK7-JNK3 module (Homo sapiens, UniProt O14733+P53779); assay: In vitro phosphorylation of JNK3α2 by MKK7 (reconstituted module); format: biochemical
Sequence of MKK7-JNK3 module (O14733 whole entry): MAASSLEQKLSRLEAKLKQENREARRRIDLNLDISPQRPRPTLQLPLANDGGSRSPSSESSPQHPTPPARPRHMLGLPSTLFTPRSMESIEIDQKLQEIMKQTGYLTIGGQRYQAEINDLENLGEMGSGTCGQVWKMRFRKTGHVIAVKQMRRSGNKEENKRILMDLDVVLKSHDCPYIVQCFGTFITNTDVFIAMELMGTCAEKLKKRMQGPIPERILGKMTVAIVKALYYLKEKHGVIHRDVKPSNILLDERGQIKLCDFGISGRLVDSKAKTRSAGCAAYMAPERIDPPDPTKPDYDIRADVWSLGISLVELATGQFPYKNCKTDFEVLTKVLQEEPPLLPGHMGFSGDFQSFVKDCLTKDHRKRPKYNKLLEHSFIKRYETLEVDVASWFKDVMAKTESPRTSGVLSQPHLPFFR
Sequence of MKK7-JNK3 module (P53779 whole entry): as the sequence (P53779 whole entry, species assumed, the tested form may be a part) above
Experimental: as §1, with “The optimal concentration of a scaffolding protein for signaling depends on its affinity for the proteins it scaffolds^20,25,26.” left out
JNK3α2^20,23, and MKK4 and MKK7^17,20 were expressed in E. coli and purified as previously described^40. The effect of arrestin-3 and MBP-T1A on the phosphorylation of JNK3α2 by MKK7 or MKK4 was analyzed by an in vitro kinase assay, as described^19,20. […] Phosphorylated JNK3α2 was visualized by rabbit anti-phospho JNK antibody (Cell Signaling) and the level of JNK phosphorylation was quantified.

Substance | binding of MKK4 in MBP pull-down (MKK4) | binding of JNK3 in MBP pull-down (JNK3) | interaction with MKK4 compared with MKK7 (MKK4; MBP pull-down, purified proteins) | optimal concentration for promoting JNK3 phosphorylation by MKK4 compared with MKK7-JNK3 module (MKK4-JNK3 module) | optimal concentration relative to full-length arrestin-3, MKK4-JNK3 module (MKK4-JNK3 module) [times lower] | JNK3 phosphorylation level by MKK4 as a function of T1A concentration (MKK4-JNK3 module; 50 nM MKK4, 1 μM JNK3α2, 10 sec, 30° C., synthetic purified peptide) | optimal concentration relative to full-length arrestin-3, MKK7-JNK3 module (MKK7-JNK3 module) [times lower] | JNK3 phosphorylation level by MKK7 as a function of T1A concentration (MKK7-JNK3 module; 50 nM MKK7, 1 μM JNK3α2, 10 sec, 30° C., synthetic purified peptide)
MGDK-GTRVFKKASPNGKLTVYLGK (MGDKGTRVFKKASPNGKLTVYLGK; N-terminal MGDK; bovine) [B1A, homologous N-terminal peptide from arrestin-2, negative control] | comparably bind MKK4 | less robust interaction |  |  |  |  |  | 
MGEKPGTRVFKKSSPNCKLTVYLGK (bovine) [T1A, first 25 residues of arrestin-3] | binds both MKKs; also recorded: comparably bind MKK4 |  | stronger interaction with MKK4 than with MKK7 | lower than for MKK7-JNK3 module | ~10 | bell-shaped curves | ~10 | bell-shaped curves
